B1: Ethylene receptor 1 (Arabidopsis thaliana (Mouse-ear cress)), P49333 (parent)
chain: MEVCNCIEPQWPADELLMKYQYISDFFIAIAYFSIPLELIYFVKKSAVFPYRWVLVQFGAFIVLCGATHLINLWTFTTHSRTVALVMTTAKVLTAVVSCATALMLVHIIPDLLSVKTRELFLKNKAAELDREMGLIRTQEETGRHVRMLTHEIRSTLDRHTILKTTLVELGRTLALEECALWMPTRTGLELQLSYTLRHQHPVEYTVPIQLPVINQVFGTSRAVKISPNSPVARLRPVSGKYMLGEVVAVRVPLLHLSNFQINDWPELSTKRYALMVLMLPSDSARQWHVHELELVEVVADQVAVALSHAAILEESMRARDLLMEQNVALDLARREAETAIRARNDFLAVMNHEMRTPMHAIIALSSLLQETELTPEQRLMVETILKSSNLLATLMNDVLDLSRLEDGSLQLELGTFNLHTLFREVLNLIKPIAVVKKLPITLNLAPDLPEFVVGDEKRLMQIILNIVGNAVKFSKQGSISVTALVTKSDTRAADFFVVPTGSHFYLRVKVKDSGAGINPQDIPKIFTKFAQTQSLATRSSGGSGLGLAISKRFVNLMEGNIWIESDGLGKGCTAIFDVKLGISERSNESKQSGIPKVPAIPRHSNFTGLKVLVMDENGVSRMVTKGLLVHLGCEVTTVSSNEECLRVVSHEHKVVFMDVCMPGVENYQIALRIHEKFTKQRHQRPLLVALSGNTDKSTKEKCMSFGLDGVLLKPVSLDNIRDVLSDLLEPRVLYEGM
partner: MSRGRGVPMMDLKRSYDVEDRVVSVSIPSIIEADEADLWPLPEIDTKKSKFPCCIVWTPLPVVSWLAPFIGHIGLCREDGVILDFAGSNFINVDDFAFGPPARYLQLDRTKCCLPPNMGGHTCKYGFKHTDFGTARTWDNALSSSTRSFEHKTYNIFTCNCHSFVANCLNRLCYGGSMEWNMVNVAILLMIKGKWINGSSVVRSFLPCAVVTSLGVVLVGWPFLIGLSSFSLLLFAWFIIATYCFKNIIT

Variants of: B1
Conditions: with rte1_arath RTE1, F4ITL6

effect of a mutation on the interaction | Variant
decreasing interaction | C65W
decreasing interaction | A102T
